Reference: the DeepSol protein solubility set

Assay: soluble on expression in E. coli; label from the status in PepcDB or PDB records

Sequence	soluble on expression in E. coli
MVLPPQNRLCNEVCLEAGQSPNSNELYLNSSELLKTELNNDINLCLVDFCERHNIDYRGMVNRLVTNNMYFFYIWGKYALSKA	not soluble
MVLVELFGFGPHLMVDGYEANPDRLRDAELIRRVLNELPEEMEMTKVLPPFVYSYGPGGEDGVTGVVIIAESHIAIHTFPKKRFLSVDIFSCKAFDMAKALKKLAEVFEIRRYETYMINRGKEFPKDPELARQIVLGEREYLEARVG	soluble
MVMPESHIHNIPMEQCVLVALMTFALSYELIAQDLDEGCFYPERHKQIYNAIVELANENQPYDVVMVEQRLKSKNLLHVLGGEQYLKIMLAEAPSSFHSMEPYITQLKKLKAHRQVEWLGQRISSMAQDTTQPDVFAEAENILGQVDNQEQSDQGMSFEAALDMALTEMIEKAEAKDKQQFTGVKFNLKHLDELLGTVQKGHFCVVGGRPGSGKSTLAQMLALDTASSFGKGVLFISAEMDQSTLANRMISALGLIPYHNIHNAELYNGLMKDYADAKAAYQRLPIWIQPKQKPSLSEVRSYARRAKRRYKELGCIIVDYLQLLRDPSKKDRFQEVSSISRELKSMAKEFECPVIALVQLNREAEKGKRPKASDIKESGQIEQDADQIILVNPLTDPEDSTKPMGITELIVVKNRHGKRGAVRVLDYLETCRFRSVEEQAEP	not soluble
MVMVNFTAGKWISEPKVSEVTSEFVSITTEPKTDFWQRSYYGFRNENAPALLIDSKDNFTFTAKVSFAYQQLFDQCGLIIYLDNENWFKASIEYENQSFSRLGSVVTNLGYSDWATTDIPLPKEIWYRLSRRGPDFLIESSFDGLVFNQMRIFHLHRLGETTIEMGKCNPPLPTQKVVSFGVYACSPSESSFTAKFTEMSLEPCKWLAHLEHHHHHH	soluble
MVNDLTPHFEDVQAHYDLSDDFFRLFLDPTQTYSCAHFEREDMTLEEAQIAKIDLALGKLGLQPGMTLLDIGCGWGATMRRAIAQYDVNVVGLTLSKNQAAHVQKSFDEMDTPRDRRVLLAGWEQFNEPVDRIVSIGAFEHFGHDRHADFFARAHKILPPDGVLLLHTITGLTRQQMVDHGLPLTLWLARFLKFIATEIFPGGQPPTIEMVEEQSAKTGFTLTRRQSLQPHYARTLDLWAEALQEHKSEAIAIQSEEVYERYMKYLTGCAKLFRVGYIDVNQFTLAK	soluble
MVNGSLGSRETETSAVKMGKDNKEHKESKESKTVDNYEARMPAVLPFAKPLASKKLNKKVLKTVKKASKAKNVKRGVKEVVKALRKGEKGLVVIAGDISPADVISHIPVLCEDHSVPYIFIPSKQDLGAAGATKRPTSVVFIVPGSNKKKDGKNKEEEYKESFNEVVKEVQAL	soluble
MVNRIQNPILPGFHPDPSIVRVGDDYYIATSTFEWFPGVRIHHSRDLKHWRFVSSPLTRTSQLDMKGNMNSGGIWAPCLSYHDGTFYLIYTDVKQWHGAFKDAHNYLVTAQNIEGPWSDPIYLNSSGFDPSLFHDDDGRKWLVNMIWDYRKGNHPFAGIILQEYSEAEQKLVGPVKNIYKGTDIQLTEGPHLYKKDGYYYLLVAEGGTEYEHAATLARSQSIDGPYETDPSYPLVTSTGQPELALQKAGHGSLVETQNGEWYLAHLCGRPLKGKYCTLGRETAIQKVNWTEDGWLRIEDGGNHPLREVTAPDLPEHPFEKEPELDDFDAPQLHHQWNTLRIPADPSWCSLEERPGHLRLRGMESLTSVHSQSLVARRQQSFHCEVETKLEYQPESFQHMAGLVIYYDTEDHVYLHVTWHEEKGKCLQIIQTKGGNYDELLASPIPLAEEKAVYLKGRIHRETMHLYFKQEGEAEWQPVGPTIDVTHMSDDSAKQVRFTGTFVGMATQDLSGTKKPADFDYFRYKELDQ	soluble
MVNRLINSRSPYLRKAANQPVEWFEWGEEAFAKAKKEDKPILLSIGGVWCHWCHVMAKESFENEEIAEMINRNFVAIKVDRDERPDIDKRYQEFVMATTGSGGWPLTVFLTPDGKPFFGGTYFPPEDRYHLPGFKTVLRKIAEMWRHDRERLLKSAEELTEAVRRYAE	not soluble
MVNTNLEELRTQVDQLNIDLLELISKRANLVQEIGKIKGTQGSLRFDPLREREMLNTILAANEGPFEDSTVQKLFKEIFKAGLELQEEDHSKALLVSRKNKKEDTIVTVKGLPIGNGEPVFVFGPCSVESYEQVAAVAESIKAKGLKLIRGGAFKPRTSPYDFQGLGLEGLKILKRVSDEYGLGVISEIVTPADIEVALDYVDVIQIGARNMQNFELLKAAGRVDKPILLKRGLSATIEEFIGAAEYIMSQGNGKIILCERGIRTYEKATRNTLDISAVPILKKETHLPVMVDVTHSTGRKDLLLPCAKAALAIEADGVMAEVHPDPAVALSDSAQQMDIPEFEEFWNAILASNLVPHKIK	not soluble
MVNVAVNGYGTIGKRVADAIIKQPDMKLVGVAKTSPNYEAFIAHRRGIRIYVPQQSIKKFEESGIPVAGTVEDLIKTSDIVVDTTPNGVGAQYKPIYLQLQRNAIFQGGEKAEVADISFSALCNYNEALGKKYIRVVSCNTTALLRTICTVNKVSKVEKVRATIVRRAADQKEVKKGPINSLVPDPATVPSHHAKDVNSVIRNLDIATMAVIAPTTLMHMHFINITLKDKVEKKDILSVLENTPRIVLISSKYDAEATAELVEVARDLKRDRNDIPEVMIFSDSIYVKDDEVMLMYAVHQESIVVPENIDAIRASMKLMSAEDSMRITNESLGILKGYLI	soluble
MVPPRGDAVRGPLGPGGESVVERYWEALKGVKDPEIPVLNIVEMGMVLGVEAEGKRVKVRFRPTFSGCPAIQLIREEIVGALKEAGAEEVEVEEARTPWSTEAMTEEAREKLLGYGVAPPLPLPMAGEDPPCPRCGSREVVLKNPFGATLCKTLYQCAACGEVFEAFKTV	soluble
MVSDEDELNLLVIVVDANPIWWGKQALKESQFTLSKCIDAVMVLGNSHLFMNRSNKLAVIASHIQESRFLYPGKNGRLGDFFGDPGNPPEFNPSGSKDGKYELLTSANEVIVEEIKDLMTKSDIKGQHTETLLAGSLAKALCYIHRMNKEVKDNQEMKSRILVIKAAEDSALQYMNFMNVIFAAQKQNILIDACVLDSDSGLLQQACDITGGLYLKVPQMPSLLQYLLWVFLPDQDQRSQLILPPPVHVDYRAACFCHRNLIEIGYVCSVCLSIFCNFSPICTTCETAFKISLPPVLKAKKRN	soluble
MVSEQHAVDICLDKLRFYEVLSAHGFPVVPTALSLAELDDGDYVVKERYGAGATNIGLRLTKEEANRHAQKLEAPVFQPFIAGAEFSIDLYMTRTGRVKGAVARTREYVVNGESQITTTIRNEKLEDMCIAVASYLRLYGHAVMQVIIDYEGQFHLIECNPRFGGASTVSLEAGLDSFYWFFLESQGGDLDDYPFSRSMKEKRQIRYPADFVIDL	not soluble
MVSKRTKESIRNLNIFKGLELCIHISESVSYRVSKNRTVIFIISIGYKGVTVSKGPTYQERFTFTTQKFNAKSCLNHFLYVINPTKIDDLHFSIITGTFDDPKIQMAVECLKGLRVVNLNTPILSNTKTLAELVKTFEPTEHLKIHRYPFQTLGFAQLFQLREILPGKFPILSLNINMPLNGLLLTSSSSVGVNNNRLLTSKDFNIFLKHWIAGLKPELECIRILDYRLDWNEHTVLKGIPYEVAPMETKIKFRRKEELQLGGFDFTMSSGVKATLHFHYWDRVPITEISVVLHDSEIITFL	not soluble
MVSLCKLFGVTKQAFYKYVDHSTDSSARERFVLEFVKRVRSKDPGIGGMKLWLMYRNEFGTSQAFVGRDCFCAILSKYKLTIRKRFRAPRTTDSSHHLPQYPDLTRTLLLEHPDQLWVSDITYITIWLPDGSYVFCYLSLVTDAYTKEIIGYCVGDTLGSCYTVEALEMAVRRIAAKEIKGLIHHSDRGVQYASADYIAILRHNGILPSMTEDGNPKDNAIAERVNGIIKNELLQGMRFSSIQEVRKAVATAVHFYNNERPHMSLDMLTPVQAGEMQGPIRKRWISYREKYLNVALA	not soluble
MVSQRLHHRCDLVFFVVDSKHDQLNLDRFEFWQLTSQLLVLDVCLFDAFALEHHHHHH	not soluble
MVSVARELTVGINGFGRIGRLVLRACMEKGVKVVAVNDPFIDPEYMVYMFKYDSTHGRYKGSVEFRNGQLVVDNHEISVYQCKEPKQIPWRAVGSPYVVESTGVYLSIQAASDHISAGAQRVVISAPSPDAPMFVMGVNENDYNPGSMNIVSNASCTTNCLAPLAKVIHERFGIVEGLMTTVHSYTATQKTVDGPSRKAWRDGRGAHQNIIPASTGAAKAVTKVIPELKGKLTGMAFRVPTPDVSVVDLTCRLAQPAPYSAIKEAVKAAAKGPMAGILAYTEDEVVSTDFLGDTHSSIFDAKAGIALNDNFVKLISWYDNEYGYSHRVVDLLRYMFSRDAENLYFQ	soluble
